Results: doi:10.1101/560391 (bioRxiv, 2019)

Columns and labels:
[1] = biological target: dCENP-A^C chimera, GFP-LacI fusion (Drosophila) (UniProt Q9V6Q2); assay: LacI/LacO tethering and co-recruitment in cells
SEC-MALS = biological target: the molecule itself; assay: SEC-MALS
[2] = biological target: (dCENP-A/dH4) dimer (Drosophila), Q9V6Q2; assay: SEC-MALS; settings: remark: other sources report otherwise

CAL1-V5 (from UniProt Q9VEN2 1-979) (natural protein)
CAL1 recruitment relative to WT dCENP-A [1]: 60%

B1: His-dCENP-C(1264-1411) (domain or fragment)
chain: GPVVFSTPLRDEQEEASTKLMQWLRGVGDAPPSASMSDENASVSSANELIFCQVDGIDYAFYNTKEKAMLGYMRFKPYQKRSMKQAKVHPLKLLVQFGEFNVETLAVGEEKEVHSVLRVGDMIEIDRGTRYSIQNAIDKVSVLMCIRS
stoichiometry N (SEC-MALS): 2

B2: recombinant CAL1(1-160), Q9VEN2 1-160 (domain or fragment)
chain: MANAVVDEETLEAMVYERSKAWSSKMADFASLEDGMEIDVAEFDNLFHGEDEDPDLDDVAKEAVEDNVPDEAKLEMGHINATSVTELTLILCANEDNEAKAEIEEILNQTVPVVEEHKRKWREAGLDRILDTFDEKQIEHHVGRWMRRHNSVYLEASPPK
stoichiometry N [2]: 1
